Here are results for one molecule from KR20160093503A (dated 2016).

The Kd is the concentration at which binding is half-saturated.

Experiment [1] has as its target T1, CRS (Cysteinyl-tRNA synthetase), purified recombinant antigen (human, UniProt P49589 1-748, limits assumed).
T1 construct: also called CRS 항원; 재조합 CRS 표준물질
T1 sequence (looked up): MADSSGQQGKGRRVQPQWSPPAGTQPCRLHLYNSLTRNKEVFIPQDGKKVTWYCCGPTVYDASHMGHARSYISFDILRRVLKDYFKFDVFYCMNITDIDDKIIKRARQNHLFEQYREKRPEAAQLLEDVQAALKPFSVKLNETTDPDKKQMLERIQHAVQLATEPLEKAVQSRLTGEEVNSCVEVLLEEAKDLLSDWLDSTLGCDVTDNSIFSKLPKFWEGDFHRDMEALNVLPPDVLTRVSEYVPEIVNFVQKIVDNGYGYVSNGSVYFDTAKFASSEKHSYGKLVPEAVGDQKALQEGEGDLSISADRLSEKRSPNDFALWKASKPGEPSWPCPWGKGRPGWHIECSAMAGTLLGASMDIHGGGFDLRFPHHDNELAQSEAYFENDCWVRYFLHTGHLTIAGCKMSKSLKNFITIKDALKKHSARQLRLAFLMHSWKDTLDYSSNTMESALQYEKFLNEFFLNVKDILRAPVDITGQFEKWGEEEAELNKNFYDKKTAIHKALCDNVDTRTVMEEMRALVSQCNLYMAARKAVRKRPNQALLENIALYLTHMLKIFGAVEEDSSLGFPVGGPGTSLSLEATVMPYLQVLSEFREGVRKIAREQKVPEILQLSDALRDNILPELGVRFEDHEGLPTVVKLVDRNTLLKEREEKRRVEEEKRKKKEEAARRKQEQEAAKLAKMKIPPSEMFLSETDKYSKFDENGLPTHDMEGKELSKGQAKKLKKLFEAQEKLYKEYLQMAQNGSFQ
Put plainly: SPR (ProteOn XPR36), CRS amine-coupled on GLC chip, scFv 500-30 nM as analyte, 25 C.

Experiment [2] addresses T2, AIMP1 (Aminoacyl-tRNA-synthetase-interacting multifunctional protein 1), purified recombinant (UniProt Q12904 1-312, limits assumed).
T2 construct: also called AIMP1(p43); p43
T2 sequence (looked up): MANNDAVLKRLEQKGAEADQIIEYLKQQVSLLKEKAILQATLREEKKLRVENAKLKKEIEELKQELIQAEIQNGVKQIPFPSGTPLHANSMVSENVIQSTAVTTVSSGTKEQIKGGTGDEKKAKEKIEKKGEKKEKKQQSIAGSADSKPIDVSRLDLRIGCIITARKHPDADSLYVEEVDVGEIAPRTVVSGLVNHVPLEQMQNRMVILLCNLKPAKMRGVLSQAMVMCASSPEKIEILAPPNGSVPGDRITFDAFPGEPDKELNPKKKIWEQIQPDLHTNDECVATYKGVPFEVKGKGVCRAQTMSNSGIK
Put plainly: Luminex multiplex bead assay, antigen coupled to beads, relative to CRS.

The target of experiment [3] is T3, AIMP3 (Aminoacyl-tRNA-synthetase-interacting multifunctional protein 3), purified recombinant (UniProt O43324 1-174, limits assumed).
T3 construct: also called AIMP3(p18); p18
T3 sequence (looked up): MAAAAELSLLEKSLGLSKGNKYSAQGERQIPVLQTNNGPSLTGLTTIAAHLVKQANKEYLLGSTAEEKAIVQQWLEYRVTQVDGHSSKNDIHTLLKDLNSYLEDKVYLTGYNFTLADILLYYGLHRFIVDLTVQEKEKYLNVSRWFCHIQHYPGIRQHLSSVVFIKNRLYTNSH
The description is as above.

Experiment [4] has as its target T4, DRS (Aspartyl-tRNA synthetase), purified recombinant (UniProt P14868 1-501, limits assumed).
T4 construct: also called 아스파틸-tRNA 합성효소
T4 sequence (looked up): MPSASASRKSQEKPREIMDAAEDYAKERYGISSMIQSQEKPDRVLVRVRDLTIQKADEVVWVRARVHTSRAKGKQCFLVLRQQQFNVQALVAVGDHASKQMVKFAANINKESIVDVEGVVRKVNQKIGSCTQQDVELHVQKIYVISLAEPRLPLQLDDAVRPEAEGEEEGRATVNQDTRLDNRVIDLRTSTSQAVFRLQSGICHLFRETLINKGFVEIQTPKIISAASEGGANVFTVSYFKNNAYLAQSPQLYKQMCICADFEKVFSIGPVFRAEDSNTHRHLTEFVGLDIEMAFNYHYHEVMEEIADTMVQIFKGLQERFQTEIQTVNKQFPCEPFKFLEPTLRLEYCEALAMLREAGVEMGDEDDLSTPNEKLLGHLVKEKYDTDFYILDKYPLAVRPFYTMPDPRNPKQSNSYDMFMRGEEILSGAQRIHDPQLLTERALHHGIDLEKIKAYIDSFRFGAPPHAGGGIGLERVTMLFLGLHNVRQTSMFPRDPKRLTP
The experiment is described as above.

In experiment [5] the target is T5, EPRS WHEP domain (Glutamyl-prolyl tRNA synthetase), purified recombinant (UniProt P07814 749-956, limits assumed).
T5 construct: domain: WHEP domain; also called 글루타밀-프로릴-tRNA 합성효소
T5 sequence (looked up): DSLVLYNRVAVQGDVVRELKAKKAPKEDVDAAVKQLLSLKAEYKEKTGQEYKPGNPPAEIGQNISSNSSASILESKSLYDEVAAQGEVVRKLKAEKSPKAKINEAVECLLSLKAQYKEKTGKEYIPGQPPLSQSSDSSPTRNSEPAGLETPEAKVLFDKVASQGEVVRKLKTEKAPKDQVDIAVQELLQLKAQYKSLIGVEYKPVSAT
Described as above.

Experiment [6] addresses T6, HRS (Histidyl-tRNA synthetase), purified recombinant (UniProt P12081 1-509, limits assumed).
T6 construct: also called 히스티딜-tRNA 합성효소
T6 sequence (looked up): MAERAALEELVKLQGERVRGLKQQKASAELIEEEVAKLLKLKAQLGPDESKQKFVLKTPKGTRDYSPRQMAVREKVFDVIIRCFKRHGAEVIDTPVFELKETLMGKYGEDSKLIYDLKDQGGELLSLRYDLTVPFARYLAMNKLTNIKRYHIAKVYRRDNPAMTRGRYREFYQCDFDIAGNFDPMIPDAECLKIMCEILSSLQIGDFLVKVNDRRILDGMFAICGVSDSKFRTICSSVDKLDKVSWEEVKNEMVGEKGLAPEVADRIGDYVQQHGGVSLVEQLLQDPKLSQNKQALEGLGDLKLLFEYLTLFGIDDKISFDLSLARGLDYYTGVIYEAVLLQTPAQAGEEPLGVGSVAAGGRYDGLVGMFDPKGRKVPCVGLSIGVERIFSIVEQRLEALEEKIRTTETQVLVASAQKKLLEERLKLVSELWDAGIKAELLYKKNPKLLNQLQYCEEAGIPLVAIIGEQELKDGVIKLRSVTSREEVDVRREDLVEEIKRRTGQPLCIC
The description is as above.

Experiment [7] deals with T7, WRS (Tryptophanyl-tRNA synthetase), purified recombinant (UniProt P23381 1-471, limits assumed).
T7 construct: also called 트립토파닐-tRNA 합성효소
T7 sequence (looked up): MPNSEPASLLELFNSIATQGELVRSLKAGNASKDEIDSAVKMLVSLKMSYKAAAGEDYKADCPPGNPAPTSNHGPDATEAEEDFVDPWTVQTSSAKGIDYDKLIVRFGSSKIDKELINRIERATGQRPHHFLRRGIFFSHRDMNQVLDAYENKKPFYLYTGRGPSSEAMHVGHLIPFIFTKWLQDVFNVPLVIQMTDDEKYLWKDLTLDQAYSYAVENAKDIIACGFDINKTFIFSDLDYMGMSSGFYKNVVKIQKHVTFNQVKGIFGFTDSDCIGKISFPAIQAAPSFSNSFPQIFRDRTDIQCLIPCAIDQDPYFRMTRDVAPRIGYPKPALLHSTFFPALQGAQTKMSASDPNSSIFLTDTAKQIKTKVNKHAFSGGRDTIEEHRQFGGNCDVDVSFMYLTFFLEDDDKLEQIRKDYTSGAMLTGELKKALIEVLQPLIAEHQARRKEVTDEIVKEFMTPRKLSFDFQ
The description is as above.

B1: anti-CRS scFv Biocon-K1 (scFv)
scFv: EVQLLESGGGLVQPVGSLRLSCAASGFTFSNYAMSWVRQAPGKGLEWVSWIYSKGRSTYYGDSAKGRFTISRDNSKNTLYLQMNSLRAEDTAVYYCAKRDNAFDYWGQGTLVTVSSGGGGSGGGGSGGGGSQSVLTQPPSASGTPGQRVTISCSGSSSNIGNNYVYWYQQLPGTAPKLLIYADSQRPSGVPDRFSGSKSGTSASLAISGLRSEDEADYYCGAWDSSLNGYVFGGGTKLTVL
notes: It was expressed from pComb3X in the E. coli periplasm, purified on Ni-NTA and detected with anti-HA; Human VH3-23/VL1g framework; also called 항 CRS scFv 항체; 본 발명의 항체
Consider B1, for which the dissociation constant (Kd) in experiment [1] is 60 nM. Besides, the “교차 반응성 (cross-reactivity)” value in experiment [2], in experiment [3], in experiment [4], in experiment [5], in experiment [6] and in experiment [7] was at most 10% in each case.
